# Experimental data taken from the supplement of paper PMC10567573.
# B1: CDC14A (parent)
# chain: LWVQGDIFRSKLKNRPSSEGSINK
# Variants of: B1
# Test: protein stability index of a GFP-peptide fusion (GPS, HEK-293T) (PSI 1-6); higher = more stable
# Details: c terminus: a fixed tail appended
# 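Further: lentivirally expressed fusions sorted by FACS into six bins by GFP to DsRed ratio, PSI derived from sequencing read proportions per bin multiplied by bin number.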
row,Variant,protein stability index
1,LWVQGDIFRSKLKMRPSSEGSINK [N14M],2
2,LWVQGDIFRSKLKWRPSSEGSINK [N14W],2.15
3,LWVQGDIFRSKLKCRPSSEGSINK [N14C],2.13
4,LWVQGDIFRSKLKTRPSSEGSINK [N14T],1.88
5,LWVQGDIFRSKLKRRPSSEGSINK [N14R],1.91
6,LWVQGDIFRSKLKYRPSSEGSINK [N14Y],2.53
7,LWVQGDIFRSKLKARPSSEGSINK [N14A],2.6
8,LWVQGDIFRSKLKERPSSEGSINK [N14E],2.7
9,LWVQGDIFRSKLKHRPSSEGSINK [N14H],2.26
10,LWVQGDIFRSKLKGRPSSEGSINK [N14G],2.24
11,LWVQGDIFRSKLKDRPSSEGSINK [N14D],2.67
12,LWVQGDIFRSKLKLRPSSEGSINK [N14L],2.47
13,LWVQGDIFRSKLKFRPSSEGSINK [N14F],2.48
14,LWVQGDIFRSKLKSRPSSEGSINK [N14S],1.99
15,LWVQGDIFRSKLKQRPSSEGSINK [N14Q],2.36
16,LWVQGDIFRSKLKPRPSSEGSINK [N14P],2.45
17,LWVQGDIFRSKLKIRPSSEGSINK [N14I],2.43
18,LWVQGDIFRSKLKKRPSSEGSINK [N14K],2.55
19,LWVQGDIFRSKNKNRPSSEGSINK [L12N],2.82
20,LWVQGDIFRSKVKNRPSSEGSINK [L12V],2.36
21,LWVQGDIFRSKAKNRPSSEGSINK [L12A],3.21
22,LWVQGDIFRSKTKNRPSSEGSINK [L12T],3.17
23,LWVQGDIFRSKQKNRPSSEGSINK [L12Q],2.92
24,LWVQGDIFRSKDKNRPSSEGSINK [L12D],2.83

row,Variant,protein stability index
1,LWVQGDIFRSKEKNRPSSEGSINK [L12E],3.51
2,LWVQGDIFRSKPKNRPSSEGSINK [L12P],3.09
3,LWVQGDIFRSKRKNRPSSEGSINK [L12R],2.22
4,LWVQGDIFRSKSKNRPSSEGSINK [L12S],2.89
5,LWVQGDIFRSKKKNRPSSEGSINK [L12K],3.16
6,LWVQGDIFRSKWKNRPSSEGSINK [L12W],2.42
7,LWVQGDIFRSKYKNRPSSEGSINK [L12Y],2.61
8,LWVQGDIFRSKCKNRPSSEGSINK [L12C],3.03
9,LWVQGDIFRSKGKNRPSSEGSINK [L12G],2.83
10,LWVQGDIFRSKIKNRPSSEGSINK [L12I],2.8
11,LWVQGDIFRSKMKNRPSSEGSINK [L12M],2.41
12,LWVQGDIFRSKFKNRPSSEGSINK [L12F],2.29
13,LWVQGDIFRSKHKNRPSSEGSINK [L12H],2.71
14,LWVQGDIFRSYLKNRPSSEGSINK [K11Y],1.93
15,LWVQGDIFRSWLKNRPSSEGSINK [K11W],2.04
16,LWVQGDIFRSVLKNRPSSEGSINK [K11V],2.36
17,LWVQGDIFRSKLKNVPSSEGSINK [R15V],2.78
18,LWVQGDIFRSKLKNDPSSEGSINK [R15D],2.61
19,LWVQGDIFRSKLKNSPSSEGSINK [R15S],2.66
20,LWVQGDIFRSKLKNAPSSEGSINK [R15A],2.81
21,LWVQGDIFRSKLKNKPSSEGSINK [R15K],3
22,LWVQGDIFRSKLKNMPSSEGSINK [R15M],2.07
23,LWVQGDIFRSKLKNIPSSEGSINK [R15I],2.52
24,LWVQGDIFRSKLKNFPSSEGSINK [R15F],2.39

row,Variant,protein stability index
1,LWVQGDIFRSKLKNYPSSEGSINK [R15Y],3.17
2,LWVQGDIFRSKLKNTPSSEGSINK [R15T],3.26
3,LWVQGDIFRSKLKNNPSSEGSINK [R15N],2.57
4,LWVQGDIFRSKLKNHPSSEGSINK [R15H],2.62
5,LWVQGDIFRSKLKNEPSSEGSINK [R15E],3.02
6,LWVQGDIFRSKLKNQPSSEGSINK [R15Q],3.09
7,LWVQGDIFRSKLKNWPSSEGSINK [R15W],2.25
8,LWVQGDIFRSKLKNCPSSEGSINK [R15C],2.54
9,LWVQGDIFRSKLKNGPSSEGSINK [R15G],2.91
10,LWVQGDIFRSKLKNLPSSEGSINK [R15L],2.92
11,LWVQGDIFRSKLKNPPSSEGSINK [R15P],2.81
12,LWVQGDIFRSKLKNRCSSEGSINK [P16C],1.92
13,LWVQGDIFRSKLKNRGSSEGSINK [P16G],2.02
14,LWVQGDIFRSKLKNRESSEGSINK [P16E],3.38
15,LWVQGDIFRSKLKNRSSSEGSINK [P16S],2.52
16,LWVQGDIFRSKLKNRRSSEGSINK [P16R],2.7
17,LWVQGDIFRSKLKNRTSSEGSINK [P16T],2.6
18,LWVQGDIFRSKLKNRQSSEGSINK [P16Q],2.5
19,LWVQGDIFRSKLKNRLSSEGSINK [P16L],1.57
20,LWVQGDIFRSKLKNRVSSEGSINK [P16V],1.64
21,LWVQGDIFRSKLKNRISSEGSINK [P16I],2.36
22,LWVQGDIFRSKLKNRASSEGSINK [P16A],2.8
23,LWVQGDIFRSKLKNRNSSEGSINK [P16N],2.51
24,LWVQGDIFRSKLKNRDSSEGSINK [P16D],2.89

row,Variant,protein stability index
1,LWVQGDIFRSKLKNRMSSEGSINK [P16M],2.17
2,LWVQGDIFRSKLKNRHSSEGSINK [P16H],2.52
3,LWVQGDIFRSKLKNRKSSEGSINK [P16K],2.68
4,LWVQGDIFRSKLKNRFSSEGSINK [P16F],2.49
5,LWVQGDIFRSKLANRPSSEGSINK [K13A],2.38
6,LWVQGDIFRSKLGNRPSSEGSINK [K13G],2.05
7,LWVQGDIFRSKLRNRPSSEGSINK [K13R],2.67
8,LWVQGDIFRSKLCNRPSSEGSINK [K13C],2.2
9,LWVQGDIFRSKLFNRPSSEGSINK [K13F],1.68
10,LWVQGDIFRSKLNNRPSSEGSINK [K13N],2.31
11,LWVQGDIFRSKLENRPSSEGSINK [K13E],2.53
12,LWVQGDIFRSKLYNRPSSEGSINK [K13Y],1.89
13,LWVQGDIFRSKLINRPSSEGSINK [K13I],2.15
14,LWVQGDIFRSKLTNRPSSEGSINK [K13T],2.7
15,LWVQGDIFRSKLHNRPSSEGSINK [K13H],2.55
16,LWVQGDIFRSKLLNRPSSEGSINK [K13L],2.94
17,LWVQGDIFRSKLSNRPSSEGSINK [K13S],2.54
18,LWVQGDIFRSKLPNRPSSEGSINK [K13P],3.01
19,LWVQGDIFRSKLDNRPSSEGSINK [K13D],2.87
20,LWVQGDIFRSKLQNRPSSEGSINK [K13Q],2.69
21,LWVQGDIFRSKLVNRPSSEGSINK [K13V],2.41
22,LWVQGDIFRSKLMNRPSSEGSINK [K13M],1.93
